For one substance, Kd results are on record in publication PMC6894054.

The data set relates to ILF3 mouse-human dsRBM2 (SPR) (mouse-human (so in the source)). Nature of the data set: SPR. Particulars: ELISA and SPR buffers not given in the material (SPR: Biacore T100, biotin-RNA on streptavidin chip); biopanning: TENT (10 mM Tris-HCl pH 8.0, 1 mM EDTA, 250 mM).

Consider invSINEB2 of AS Uchl1, for which the Kd is 94.9 nM.

A word on the Kd: it is the constant that tells how readily two partners part at equilibrium. High values mean lower affinity, low ones higher affinity.
